The chains are these.
B1: Receptor tyrosine-protein kinase erbB-4 (Homo sapiens), Q15303 (parent)
chain: MKPATGLWVWVSLLVAAGTVQPSDSQSVCAGTENKLSSLSDLEQQYRALRKYYENCEVVMGNLEITSIEHNRDLSFLRSVREVTGYVLVALNQFRYLPLENLRIIRGTKLYEDRYALAIFLNYRKDGNFGLQELGLKNLTEILNGGVYVDQNKFLCYADTIHWQDIVRNPWPSNLTLVSTNGSSGCGRCHKSCTGRCWGPTENHCQTLTRTVCAEQCDGRCYGPYVSDCCHRECAGGCSGPKDTDCFACMNFNDSGACVTQCPQTFVYNPTTFQLEHNFNAKYTYGAFCVKKCPHNFVVDSSSCVRACPSSKMEVEENGIKMCKPCTDICPKACDGIGTGSLMSAQTVDSSNIDKFINCTKINGNLIFLVTGIHGDPYNAIEAIDPEKLNVFRTVREITGFLNIQSWPPNMTDFSVFSNLVTIGGRVLYSGLSLLILKQQGITSLQFQSLKEISAGNIYITDNSNLCYYHTINWTTLFSTINQRIVIRDNRKAENCTAEGMVCNHLCSSDGCWGPGPDQCLSCRRFSRGRICIESCNLYDGEFREFENGSICVECDPQCEKMEDGLLTCHGPGPDNCTKCSHFKDGPNCVEKCPDGLQGANSFIFKYADPDRECHPCHPNCTQGCNGPTSHDCIYYPWTGHSTLPQHARTPLIAAGVIGGLFILVIVGLTFAVYVRRKSIKKKRALRRFLETELVEPLTPSGTAPNQAQLRILKETELKRVKVLGSGAFGTVYKGIWVPEGETVKIPVAIKILNETTGPKANVEFMDEALIMASMDHPHLVRLLGVCLSPTIQLVTQLMPHGCLLEYVHEHKDNIGSQLLLNWCVQIAKGMMYLEERRLVHRDLAARNVLVKSPNHVKITDFGLARLLEGDEKEYNADGGKMPIKWMALECIHYRKFTHQSDVWSYGVTIWELMTFGGKPYDGIPTREIPDLLEKGERLPQPPICTIDVYMVMVKCWMIDADSRPKFKELAAEFSRMARDPQRYLVIQGDDRMKLPSPNDSKFFQNLLDEEDLEDMMDAEEYLVPQAFNIPPPIYTSRARIDSNRSEIGHSPPPAYTPMSGNQFVYRDGGFAAEQGVSVPYRAPTSTIPEAPVAQGATAEIFDDSCCNGTLRKPVAPHVQEDSSTQRYSADPTVFAPERSPRGELDEEGYMTPMRDKPKQEYLNPVEENPFVSRRKNGDLQALDNPEYHNASNGPPKAEDEYVNEPLYLNTFANTLGKAEYLKNNILSMPEKAKKAFDNPDYWNHSLPPRSTLQHPDYLQEYSTKYFYKQNGRIRPIVAENPEYLSEFSLKPGTVLPPPPYRHRNTVV

The source of these data is IntAct's records for PubMed 18334649.

The experiment covers variants of B1. The following applies: with ITCH.
For Y1056F, the “effect of a mutation on the interaction” value was “disrupting interaction”.
With P1054A the entry was “disrupting interaction”.
